Patent publication US8697714B2, “Quinazolinone based fluorogenic probes” (Nanyang Technological University, priority 2010, dated 2014)

B1: MAO B (Homo sapiens) (protein)
chain: MSNKCDVVVVGGGISGMAAAKLLHDSGLNVVVLEARDRVGGRTYTLRNQKVKYVDLGGSYVGPTQNRILRLAKELGLETYKVNEVERLIHHVKGKSYPFRGPFPPVWNPITYLDHNNFWRTMDDMGREIPSDAPWKAPLAEEWDNMTMKELLDKLCWTESAKQLATLFVNLCVTAETHEVSALWFLWYVKQCGGTTRIISTTNGGQERKFVGGSGQVSERIMDLLGDRVKLERPVIYIDQTRENVLVETLNHEMYEAKYVISAIPPTLGMKIHFNPPLPMMRNQMITRVPLGSVIKCIVYYKEPFWRKKDYCGTMIIDGEEAPVAYTLDDTKPEGNYAAIMGFILAHKARKLARLTKEERLKKLCELYAKVLGSLEALEPVHYEEKNWCEEQYSGGCYTTYFPPGILTQYGRVLRQPVDRIYFAGTETATHWSGYMEGAVEAGERAAREILHAMGKIPEDEIWQSEPESVDVPAQPITTTFLERHLPSVPGLLRLIGLTTIFSATALGFLAHKRGLLVRV
notes: purchased Sigma Aldrich
B2: MAO A (Homo sapiens) (protein)
chain: MENQEKASIAGHMFDVVVIGGGISGLSAAKLLTEYGVSVLVLEARDRVGGRTYTIRNEHVDYVDVGGAYVGPTQNRILRLSKELGIETYKVNVSERLVQYVKGKTYPFRGAFPPVWNPIAYLDYNNLWRTIDNMGKEIPTDAPWEAQHADKWDKMTMKELIDKICWTKTARRFAYLFVNINVTSEPHEVSALWFLWYVKQCGGTTRIFSVTNGGQERKFVGGSGQVSERIMDLLGDQVKLNHPVTHVDQSSDNIIIETLNHEHYECKYVINAIPPTLTAKIHFRPELPAERNQLIQRLPMGAVIKCMMYYKEAFWKKKDYCGCMIIEDEDAPISITLDDTKPDGSLPAIMGFILARKADRLAKLHKEIRKKKICELYAKVLGSQEALHPVHYEEKNWCEEQYSGGCYTAYFPPGIMTQYGRVIRQPVGRIFFAGTETATKWSGYMEGAVEAGERAAREVLNGLGKVTEKDIWVQEPESKDVPAVEITHTFWERNLPSVSGLLKIIGFSTSVTALGFVLYKYKLLPRS
notes: purchased Sigma Aldrich

What was measured:
[1] = substrate: NCCCOc1ccc(Cl)cc1-c1nc2ccc(Cl)cc2c(=O)[nH]1; assay: Enzymatic kinetics of MAO-HPQ 1 oxidation (Lineweaver-Burk plot), MAO B; assay type: biochemical; details: other: MAO B, Tris-buffer 100 mM pH 7.90, 25° C., pH 7.9
Description: (§1) The enzyme kinetics was carried out in Tris-buffer (100 mM, pH 7.90) at 25° C. The enzymatic oxidation of fluorogenic substrate MAO-HPQ 1 was monitored in Varian Cary eclipse Fluorescence spectrophotometer. To a series of different MAO-HPQ 1 substrate concentration (ranged from 0˜250 μM) were added a solution of MAO A or MAO B enzyme with final concentration of […] was added to adjust the final volume to 100 μl. The rate of enzymatic oxidation was monitored with the increase of fluorescent enhancement at 530 nm. The values of the enzyme kinetic parameters (Km and Kcat) were determined from the standard Lineweaver-Burk plot, the double-reciprocal plot of the reaction rate versus MAO-HPQ 1 concentration.
(§2) Measurement of the fluorescent signal at different substrate concentrations provided the Michaelis-Menten kinetics constants.

[2] = substrate: NCCCOc1ccc(Cl)cc1-c1nc2ccc(Cl)cc2c(=O)[nH]1; assay: Enzymatic kinetics of MAO-HPQ 1 oxidation (Lineweaver-Burk plot), MAO A; assay type: biochemical; details: other: MAO A, Tris-buffer 100 mM pH 7.90, 25° C., pH 7.9
Description: as §1, §2

Row | Protein | Km [1] [µM] | kcat [1] [s⁻¹] | kcat/Km [1] [M⁻¹ s⁻¹] | Km [2] [µM] | kcat [2] [s⁻¹]
1 | B1 | 106.8 ± 5.06 | 0.141 ± 0.007 | 1320 |  | 
2 | B2 |  |  |  | 146.1 ± 7.21 | 0.163 ± 0.00817
